Results published in patent US9752163B2, “Process for the production of isoprenol from mevalonate employing a diphosphomevalonate decarboxylase” (Global Bioenergies, priority 2009, dated 2017).

Tests used:
[1] = Mevalonate decarboxylation activity followed by inorganic phosphate production (ammonium molybdate method); type: biochemical
Procedure: The reaction medium contained 100 mM mevalonate, 40 mM ATP, 10 mM MgCl2, 20 mM KCl, 0.5 mM DTT and enzyme preparation varying from 0.01 to 0.05 mg/ml of protein. 50 mM sodium citrate was used in the range of pH from 4 to 6, and 50 mM Tris-HCl for pH 7 and 7.5. Enzyme-free control assays were carried out in parallel. After 72 h incubation, inorganic phosphate was quantified colorimetrically according to the ammonium molybdate method (Gawronski J D, Benson D R, Anal. Biochem. 327 (2004) 114-118). A 50 μl sample (containing not more than 0.5 μmole of phosphate) was mixed with 150 μl of ammonium molybdate reagent containing 50% v/v acetone, 1.25 N H2SO4, 2.5 mM (NH4)6Mo7O24 and then with 10 μl 1 M citric acid. The mixture was incubated for 2 minutes at room temperature. The absorbance of ammonium phosphomolybdate formed was measured at 355 nm and the quantity of inorganic phosphate estimated using a calibration curve obtained with potassium phosphate.
(§1) The complete assay for mevalonate decarboxylation contains reaction buffer, 100 mM mevalonate, 40 mM ATP, 10 mM MgCl2, 20 mM KCl, 0.5 mM DTT and enzyme preparation at a concentration ranging from 0.01 to 0.05 mg/ml of protein. 50 mM sodium citrate is used in the range of pH from 4 to 6, and 50 mM Tris-HCl for pH 7 and 7.5. Control reactions are carried out in the absence of enzyme, substrate or co-factor.
Inorganic phosphate concentration is measured by spectroscopic colorimetry according to the ammonium molybdate method (Gawronski J D, Benson D R, Anal. Biochem. 327 (2004) 114-118). A 50 μl aliquot from the reaction assay (containing not more than 0.5 μmole of phosphate) is mixed with 150 μl ammonium molybdate reagent, containing 50% volume acetone, 1.25 N H2SO4, 2.5 mM (NH4)6Mo7O24 and then with 10 μl 1 M citric acid. The mixture is then incubated for 2 minutes at room temperature. The absorbance of ammonium phosphomolybdate formed was measured at 355 nm and the quantity of inorganic phosphate estimated using a calibration curve obtained with potassium phosphate.

[2] = Product formation as function of mevalonate concentration (permanganate assay); type: biochemical; conditions: purified enzyme, range of mevalonate concentrations (FIG. 6)
Procedure: as §1
The formation of products containing double-bonds is followed by oxidization with alkaline potassium permanganate solution, resulting in increase of absorbance at 420 nm.
To an aliquot of reaction mixture diluted with H2O to 120 μl, 80 μl of permanganate reagent, containing 5 mM KMnO4 and 50 mM NaOH, is added. The mixture is kept at room temperature for 20 min and the absorbance at 420 nm is measured. The calibration curve is prepared using commercial isoprenol.

Molecule | phosphate production with mevalonate as substrate ([1]; purified proteins (FIG. 5)) | enzyme activity with mevalonate as substrate ([1]; crude lysate of E. coli, optimized gene versus native sequence (FIG. 4b)) | phosphate production with mevalonate as substrate ([1]; library screening, E. coli extracts, 100 mM mevalonate, 40 mM ATP, 72 h incubation) | conversion rate [2]
Thermoplasma acidophilum (accession number Q9H1N1): MDP decarboxylase enzyme inferred from the genome of Thermoplasma acidophilum (protein, listed as Thermoplasma acidophilum) MLHHHHHHTYRSIGSTAYPTIGVVLLGGIANPVTRTPLHTSAGIAYSDSCGSIRSETRIYADEATHIYFNGTESTDDNRSVRRVLDRYSSVFEEAFGTKTVSYSSQNFGILSGSSDAGAASIGAAILGLKPDLDPHDVENDLRAVSESAGRSLFGGLTITWSDGFHAYTEKILDPEAFSGYSIVAFAFDYQRNPSDVIHQNIVRSDLYPARKKHADEHAHMIKEYAKTNDIKGIFDLAQEDTEEYHSILRGVGVNVIRENMQKLISYLKLIRKDYWNAYIVTGGSNVYVAVESENADRLFSIENTFGSKKKMLRIVGGAWHRRPE | significant increase in phosphate production | – | – | –
Thermoplasma volcanium (accession number Q97BY2): MDP decarboxylase enzyme inferred from the genome of Thermoplasma volcanium (protein, listed as Thermoplasma volcanium) MLHHHHHHSNSSITSVAYPTIGVVLLGGIANEKTRTPLHTSAGIAYTDSCGSIRTESTIYGDSEMHIYFNGTESKDENRSVKSVLERYRNELQSFFGKKDVSYSSLNYGILSGSSDAGAASIGAILSFIDKKNDIHDIENDIRMISESAGRSLHGGLTITWSDGYSAYTERVLGPEHFNNYAIVGFSFDYPRNPSDTIHQNIIKSKRYKQRTIDADEHAHEIKEMARTDDIEGIFEKAEEDTEEYHSILREVGVLVIRENMQKLIEFIKILRKEFWNSYIVTGGSNVYVIVRRDDLERLIHIKNTFGSKPKILNVAGPAWIKKVESD | significant increase in phosphate production | – | – | –
Picrophilus torridus MDP decarboxylase: diphosphomevalonate (MDP) decarboxylase EC 4.1.1.33 from Picrophilus torridus, expressed in E. coli from the native or codon-optimized gene (protein, listed as Picrophilus torridus, DSM 9790, diphosphomevalonate (MDP) decarboxylase EC 4.1.1.33 from Picrophilus torridus, expressed in E. coli from the native or codon-optimized gene) MENYNVKTRAFPTIGIILLGGISDKKNRIPLHTTAGIAYTGINNDVYTETKLYVSKDEKCYIDGKEIDLNSDRSPSKVIDKFKHEILMRVNLDDENNLSIDSRNFNILSGSSDSGAAALGECIESIFEYNINIFTFENDLQRISESVGRSLYGGLTVNYANGRESLTEPLLEPEAFNNFTIIGAHFNIDRKPSNEIHENIIKHENYRERIKSAERKAKKLEELSRNANIKGIFELAESDTVEYHKMLHDVGVDIINDRMENLIERVKEMKNNFWNSYIVTGGPNVFVITEKKDVDKAMEGLNDLCDDIRLLKVAGKPQVISKNF | – | higher enzyme activity | reproducible increase in phosphate production over the background level | increase with the concentration of mevalonate
